Substitutions are numbered along the chain they refer to.

Series [1] has as its target T1, His6-Rrp41 of Sulfolobus solfataricus (Sulfolobus solfataricus, UniProt Q9UXC2 1-248).
T1 sequence (looked up): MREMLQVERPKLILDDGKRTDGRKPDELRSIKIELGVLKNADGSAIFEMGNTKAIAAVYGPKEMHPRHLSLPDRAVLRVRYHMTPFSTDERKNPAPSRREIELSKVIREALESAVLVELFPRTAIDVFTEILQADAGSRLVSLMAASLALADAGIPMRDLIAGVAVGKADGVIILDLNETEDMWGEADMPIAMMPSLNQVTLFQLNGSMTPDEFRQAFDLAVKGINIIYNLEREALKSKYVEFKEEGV
The experiment in a line: pull-down; subunits of the reconstituted Strep-Csl4 exosome (purified His6-Rrp41, His6-Rrp42 and Strep-tagged Csl4 mixed in buffer P0) recovered on Strep-Tactin Sepharose through Strep-Csl4, E. coli cell-free extract with DnaG-K6AY7A present; eluted with D-desthiobiotin; silver-stained SDS-PAGE. As to conditions: both partners purified.

Series [2] deals with T2, His6-Rrp42 of Sulfolobus solfataricus (Sulfolobus solfataricus, UniProt Q9UXC0 1-275).
T2 sequence (looked up): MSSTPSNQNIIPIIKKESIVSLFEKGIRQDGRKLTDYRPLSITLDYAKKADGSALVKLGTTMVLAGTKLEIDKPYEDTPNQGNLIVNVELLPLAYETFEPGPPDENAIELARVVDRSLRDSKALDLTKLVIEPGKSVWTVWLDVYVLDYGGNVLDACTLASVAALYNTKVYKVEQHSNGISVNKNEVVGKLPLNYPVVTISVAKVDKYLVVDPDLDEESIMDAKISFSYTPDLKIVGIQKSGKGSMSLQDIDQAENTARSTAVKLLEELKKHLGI
The description is as above. As to conditions: both partners purified.

The target of series [3] is T3, Csl4 (Saccharolobus (Sulfolobus) solfataricus, UniProt Q980J9 1-189).
T3 sequence: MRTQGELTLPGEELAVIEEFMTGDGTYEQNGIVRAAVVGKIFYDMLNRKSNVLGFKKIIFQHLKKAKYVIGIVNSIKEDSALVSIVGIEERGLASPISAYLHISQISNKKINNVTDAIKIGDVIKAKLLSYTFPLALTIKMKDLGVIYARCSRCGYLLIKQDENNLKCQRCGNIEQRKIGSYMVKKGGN
The experiment in a line: EMSA; 25 fmol RNA; 20 mM HEPES pH 7.9, 60 mM KCl, 10 mM MgCl2, 10% glycerol, 2 mM DTT, 0.1 mM EDTA; room temperature 5 min, 10 ul; 5% native PAA gel at 4 C. In general terms: A gel shift assay detects complexes by their altered migration in electrophoresis.

For series [4], the target named is T4, Csl4-NT (Saccharolobus (Sulfolobus) solfataricus, UniProt Q980J9 1-189+=V+P95980:2-156, internal_change).
T4 sequence: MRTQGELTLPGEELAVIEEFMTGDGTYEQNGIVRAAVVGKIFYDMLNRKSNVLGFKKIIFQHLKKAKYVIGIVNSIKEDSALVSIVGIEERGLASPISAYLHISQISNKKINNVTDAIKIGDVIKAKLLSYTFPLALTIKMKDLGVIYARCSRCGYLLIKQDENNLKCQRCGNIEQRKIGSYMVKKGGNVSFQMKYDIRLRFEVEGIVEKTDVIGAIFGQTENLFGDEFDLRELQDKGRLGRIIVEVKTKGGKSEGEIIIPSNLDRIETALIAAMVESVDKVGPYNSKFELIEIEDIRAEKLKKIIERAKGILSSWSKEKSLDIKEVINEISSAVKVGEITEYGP
Described as above.

The target in series [5] is T5, DnaG-K6AY7A (Saccharolobus (Sulfolobus) solfataricus, UniProt P95980 1-406, K6A;Y7A).
T5 sequence: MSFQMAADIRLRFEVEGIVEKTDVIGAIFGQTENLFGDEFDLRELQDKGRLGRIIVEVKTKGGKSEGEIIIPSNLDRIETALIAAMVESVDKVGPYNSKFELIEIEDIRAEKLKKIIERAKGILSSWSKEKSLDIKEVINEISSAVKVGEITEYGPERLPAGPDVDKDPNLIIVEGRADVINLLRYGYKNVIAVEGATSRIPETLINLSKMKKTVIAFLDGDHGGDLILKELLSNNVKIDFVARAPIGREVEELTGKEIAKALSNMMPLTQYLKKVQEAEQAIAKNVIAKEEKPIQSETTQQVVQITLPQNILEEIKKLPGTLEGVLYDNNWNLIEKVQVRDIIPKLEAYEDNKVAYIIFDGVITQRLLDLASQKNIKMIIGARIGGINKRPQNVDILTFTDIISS
The experiment in a line: EMSA; 25 fmol RNA, 2.5 pmol protein; 20 mM HEPES pH 7.9, 60 mM KCl, 10 mM MgCl2, 10% glycerol, 2 mM DTT, 0.1 mM EDTA; room temperature 5 min, 10 ul; 5% native PAA gel at 4 C.

For series [6], the target named is T6, DnaG (Saccharolobus (Sulfolobus) solfataricus, UniProt P95980 1-406).
T6 sequence: T5 sequence with A6K, A7Y
The series is described as above.

Series [7] deals with T6, DnaG. The experiment in a line: EMSA; 25 fmol DNA, 2.5 pmol protein; 20 mM HEPES pH 7.9, 60 mM KCl, 10 mM MgCl2, 10% glycerol, 2 mM DTT, 0.1 mM EDTA; room temperature 5 min, 10 ul; 5% native PAA gel at 4 C.

B1: Strep-tagged Csl4 of Sulfolobus solfataricus (natural protein, UniProt Q980J9 1-189, looked up)
chain: T3 sequence
Turning to B1, the binding result in series [1] and in series [2] was “binds” throughout.
In the case of AAAAAAAAAAAAAAAAAAAAAAAAAAAAAA (ssRNA) [poly(rA)30], the binding result in series [3] was “no binding”; in series [4], “binds”; in series [5], “no binding”; in series [6], “binds”.
For the molecule AAAAAAAAAAAAAAAAAAAAAAAAAAAAAA (ssDNA) [poly(dA)30], the binding result in series [7] is reported as “no binding”.

(Values after paper PMC4227792 (Nucleic Acids Research, 2014).)
